According to publication PMC6458054 (Nature, 2017):
Values belong to the binder of their own block, whether it stands above or below them.

Tests used:
[1] = target: full-length (FL) His-ASCC3 (human, UniProt Q8N3C0 1-2202); test: pull-down
[2] = target: N-terminally deleted His-ASCC3 (human, UniProt Q8N3C0 401-2202); test: pull-down
Chain of N-terminally deleted His-ASCC3 (Q8N3C0 401-2202, stated change not applied): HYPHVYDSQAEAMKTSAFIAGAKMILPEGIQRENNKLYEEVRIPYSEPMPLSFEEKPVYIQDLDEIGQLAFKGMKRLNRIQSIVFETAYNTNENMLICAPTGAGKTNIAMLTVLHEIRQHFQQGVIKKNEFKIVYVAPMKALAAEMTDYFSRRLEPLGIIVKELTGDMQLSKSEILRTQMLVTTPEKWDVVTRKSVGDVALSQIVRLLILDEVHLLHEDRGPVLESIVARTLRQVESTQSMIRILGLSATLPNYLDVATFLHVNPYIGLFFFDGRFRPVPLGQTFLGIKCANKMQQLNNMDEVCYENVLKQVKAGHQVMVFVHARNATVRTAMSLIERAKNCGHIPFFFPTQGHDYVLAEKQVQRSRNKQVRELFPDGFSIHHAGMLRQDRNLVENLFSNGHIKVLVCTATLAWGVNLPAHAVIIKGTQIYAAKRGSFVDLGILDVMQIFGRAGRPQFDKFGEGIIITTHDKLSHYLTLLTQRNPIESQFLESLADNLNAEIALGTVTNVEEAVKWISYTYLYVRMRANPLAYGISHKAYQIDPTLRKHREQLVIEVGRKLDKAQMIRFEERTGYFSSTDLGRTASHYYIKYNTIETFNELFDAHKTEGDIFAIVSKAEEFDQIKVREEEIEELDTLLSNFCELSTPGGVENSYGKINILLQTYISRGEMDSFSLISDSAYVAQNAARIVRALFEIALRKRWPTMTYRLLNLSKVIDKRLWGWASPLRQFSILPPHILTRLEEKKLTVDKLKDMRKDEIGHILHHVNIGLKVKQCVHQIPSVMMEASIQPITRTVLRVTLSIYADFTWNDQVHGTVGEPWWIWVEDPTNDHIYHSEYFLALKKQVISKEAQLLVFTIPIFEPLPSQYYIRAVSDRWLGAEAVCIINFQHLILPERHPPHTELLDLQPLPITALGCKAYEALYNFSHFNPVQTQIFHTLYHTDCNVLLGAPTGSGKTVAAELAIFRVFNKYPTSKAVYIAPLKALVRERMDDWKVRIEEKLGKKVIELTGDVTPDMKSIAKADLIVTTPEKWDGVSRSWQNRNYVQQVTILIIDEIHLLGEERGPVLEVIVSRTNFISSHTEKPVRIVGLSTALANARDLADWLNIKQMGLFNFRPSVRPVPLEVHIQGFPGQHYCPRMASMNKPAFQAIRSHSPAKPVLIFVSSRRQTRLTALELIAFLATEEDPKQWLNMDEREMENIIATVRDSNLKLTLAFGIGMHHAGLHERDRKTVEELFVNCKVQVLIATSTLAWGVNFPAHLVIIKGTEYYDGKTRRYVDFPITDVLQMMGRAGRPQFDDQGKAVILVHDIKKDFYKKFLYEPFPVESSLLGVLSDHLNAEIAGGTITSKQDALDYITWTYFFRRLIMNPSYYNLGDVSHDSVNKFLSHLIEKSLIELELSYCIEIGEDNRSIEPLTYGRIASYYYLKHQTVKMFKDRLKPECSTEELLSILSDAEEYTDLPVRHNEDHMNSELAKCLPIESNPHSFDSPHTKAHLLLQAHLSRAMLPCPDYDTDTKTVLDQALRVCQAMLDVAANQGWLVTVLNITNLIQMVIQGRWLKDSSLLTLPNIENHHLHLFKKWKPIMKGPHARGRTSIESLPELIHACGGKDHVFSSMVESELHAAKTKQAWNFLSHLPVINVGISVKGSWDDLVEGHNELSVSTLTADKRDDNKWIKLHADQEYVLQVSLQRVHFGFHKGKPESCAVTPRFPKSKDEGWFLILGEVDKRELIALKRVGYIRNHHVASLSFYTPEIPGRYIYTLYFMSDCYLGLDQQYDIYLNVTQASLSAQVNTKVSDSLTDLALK

Chain of full-length (FL) His-ASCC3 (Q8N3C0 whole entry): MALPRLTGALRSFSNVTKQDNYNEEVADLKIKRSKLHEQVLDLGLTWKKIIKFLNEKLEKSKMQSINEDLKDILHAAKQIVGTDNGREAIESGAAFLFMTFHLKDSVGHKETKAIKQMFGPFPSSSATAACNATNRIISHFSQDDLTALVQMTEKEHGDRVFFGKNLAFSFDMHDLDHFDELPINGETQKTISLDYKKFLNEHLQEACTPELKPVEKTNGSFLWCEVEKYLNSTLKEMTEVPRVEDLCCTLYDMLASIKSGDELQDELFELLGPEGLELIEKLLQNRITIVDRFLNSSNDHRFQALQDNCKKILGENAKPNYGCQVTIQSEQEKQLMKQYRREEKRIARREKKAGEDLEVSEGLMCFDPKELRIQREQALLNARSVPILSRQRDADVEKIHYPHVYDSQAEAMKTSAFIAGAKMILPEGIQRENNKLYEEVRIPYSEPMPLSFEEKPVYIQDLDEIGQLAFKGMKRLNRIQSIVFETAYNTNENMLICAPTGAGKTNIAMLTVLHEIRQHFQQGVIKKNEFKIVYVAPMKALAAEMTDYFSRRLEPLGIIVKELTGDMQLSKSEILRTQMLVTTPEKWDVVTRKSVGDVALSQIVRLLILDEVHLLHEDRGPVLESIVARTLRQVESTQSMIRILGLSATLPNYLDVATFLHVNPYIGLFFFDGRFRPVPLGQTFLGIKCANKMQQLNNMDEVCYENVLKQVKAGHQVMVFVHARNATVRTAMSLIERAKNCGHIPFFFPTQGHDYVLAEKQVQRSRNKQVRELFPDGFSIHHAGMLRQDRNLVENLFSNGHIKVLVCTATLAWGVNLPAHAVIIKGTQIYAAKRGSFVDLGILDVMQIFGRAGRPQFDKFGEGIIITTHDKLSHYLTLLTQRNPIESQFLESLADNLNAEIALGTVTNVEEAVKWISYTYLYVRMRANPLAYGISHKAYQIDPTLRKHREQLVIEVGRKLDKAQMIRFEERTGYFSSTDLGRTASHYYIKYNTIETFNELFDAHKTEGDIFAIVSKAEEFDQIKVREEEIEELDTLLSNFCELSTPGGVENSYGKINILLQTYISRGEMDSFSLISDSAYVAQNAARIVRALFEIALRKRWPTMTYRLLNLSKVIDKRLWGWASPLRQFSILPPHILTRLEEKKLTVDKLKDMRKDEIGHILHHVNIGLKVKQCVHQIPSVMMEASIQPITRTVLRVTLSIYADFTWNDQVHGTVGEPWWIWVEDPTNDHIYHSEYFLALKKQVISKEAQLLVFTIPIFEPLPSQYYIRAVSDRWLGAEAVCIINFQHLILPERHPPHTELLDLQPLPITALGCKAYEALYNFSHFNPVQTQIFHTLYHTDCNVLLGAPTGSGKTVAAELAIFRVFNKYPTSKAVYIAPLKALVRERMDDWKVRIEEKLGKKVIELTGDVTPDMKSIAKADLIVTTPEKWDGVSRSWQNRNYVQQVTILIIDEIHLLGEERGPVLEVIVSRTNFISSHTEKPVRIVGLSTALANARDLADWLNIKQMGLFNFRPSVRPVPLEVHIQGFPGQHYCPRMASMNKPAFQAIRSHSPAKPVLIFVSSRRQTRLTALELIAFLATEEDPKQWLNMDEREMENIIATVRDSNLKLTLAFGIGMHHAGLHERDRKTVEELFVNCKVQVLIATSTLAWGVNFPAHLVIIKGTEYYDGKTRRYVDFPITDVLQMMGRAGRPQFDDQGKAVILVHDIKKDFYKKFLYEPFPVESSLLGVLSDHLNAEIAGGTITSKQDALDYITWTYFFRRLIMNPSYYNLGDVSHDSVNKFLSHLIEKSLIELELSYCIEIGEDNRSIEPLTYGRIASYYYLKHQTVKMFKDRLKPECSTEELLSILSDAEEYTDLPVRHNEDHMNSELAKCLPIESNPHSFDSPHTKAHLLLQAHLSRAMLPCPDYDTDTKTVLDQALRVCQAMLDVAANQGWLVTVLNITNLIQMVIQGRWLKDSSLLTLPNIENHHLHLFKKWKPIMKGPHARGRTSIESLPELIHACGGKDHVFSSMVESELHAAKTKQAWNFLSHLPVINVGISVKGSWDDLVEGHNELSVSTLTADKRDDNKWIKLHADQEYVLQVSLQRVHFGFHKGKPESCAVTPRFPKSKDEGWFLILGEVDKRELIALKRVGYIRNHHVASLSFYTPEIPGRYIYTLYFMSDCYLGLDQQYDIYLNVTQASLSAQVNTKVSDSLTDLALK

- binding result [1]: binds
B1: Flag-ASCC2 (natural protein)
chain: MPALPLDQLQITHKDPKTGKLRTSPALHPEQKADRYFVLYKPPPKDNIPALVEEYLERATFVANDLDWLLALPHDKFWCQVIFDETLQKCLDSYLRYVPRKFDEGVASAPEVVDMQKRLHRSVFLTFLRMSTHKESKDHFISPSAFGEILYNNFLFDIPKILDLCVLFGKGNSPLLQKMIGNIFTQQPSYYSDLDETLPTILQVFSNILQHCGLQGDGANTTPQKLEERGRLTPSDMPLLELKDIVLYLCDTCTTLWAFLDIFPLACQTFQKHDFCYRLASFYEAAIPEMESAIKKRRLEDSKLLGDLWQRLSHSRKKLMEIFHIILNQICLLPILESSCDNIQGFIEEFLQIFSSLLQEKRFLRDYDALFPVAEDISLLQQASSVLDETRTAYILQAVESAWEGVDRRKATDAKDPSVIEEPNGEPNGVTVTAEAVSQASSHPENSEEEECMGAAAAVGPAMCGVELDSLISQVKDLLPDLGEGFILACLEYYHYDPEQVINNILEERLAPTLSQLDRNLDREMKPDPTPLLTSRHNVFQNDEFDVFSRDSVDLSRVHKGKSTRKEENTRSLLNDKRAVAAQRQRYEQYSVVVEEVPLQPGESLPYHSVYYEDEYDDTYDGNQVGANDADSDDELISRRPFTIPQVLRTKVPREGQEEDDDDEEDDADEEAPKPDHFVQDPAVLREKAEARRMAFLAKKGYRHDSSTAVAGSPRGHGQSRETTQERRKKEANKATRANHNRRTMADRKRSKGMIPS

- binding result [2]: binds
B2: Flag-ALKBH3 (enzyme)
chain: MEEKRRRARVQGAWAAPVKSQAIAQPATTAKSHLHQKPGQTWKNKEHHLSDREFVFKEPQQVVRRAPEPRVIDREGVYEISLSPTGVSRVCLYPGFVDVKEADWILEQLCQDVPWKQRTGIREDITYQQPRLTAWYGELPYTYSRITMEPNPHWHPVLRTLKNRIEENTGHTFNSLLCNLYRNEKDSVDWHSDDEPSLGRCPIIASLSFGATRTFEMRKKPPPEENGDYTYVERVKIPLDHGTLLIMEGATQADWQHRVPKEYHSREPRVNLTFRTVYPDPRGAPW
